# Measurements from patent publication EP4786496A1 (Nanjing Iaso Biotechnology Co., Ltd., dated 2026).
# B1: SP34 monoclonal antibody (anti-CD3) (antibody, human IgG4 S228P, lambda, V domains shown)
# VH: EVQLVESGGGLVQPKGSLKLSCAASGFTFNTYAMNWVRQAPGKGLEWVARIRSKYNNYATYYADSVKDRFTISRDDSQSILYLQMNNLKTEDTAMYYCVRHGNFGNSYVSWFAYWGQGTLVTVSS
# VL: QAVVTQESALTTSPGETVTLTCRSSTGAVTTSNYANWVQEKPDHLFTGLIGGTNKRAPGVPARFSGSLIGDKAALTITGAQTEDEAIYFCALWYSNLWVFGGGTKLTVLG
# notes: also called α-CD3 monoclonal antibody
# What was measured:
# [1] = target: T1, His-tagged human CD3E&D (CDD-H52W1, Acro) (human, UniProt P07766 23-126; P04234 22-105); assay: BLI (ForteBio Octet), His-tagged antigen on HIS1K sensor, antibody in solution
# T1 construct: Bought His-tagged heterodimer; also called CD3E&D heterodimer complex
# [2] = target: T2, His-tagged human CD3E&G (CDG-H52W6, Acro) (human, UniProt P07766 23-126; P09693 23-111); assay: as above
# T2 construct: Bought His-tagged heterodimer; also called CD3E&G heterodimer complex
# T2 sequence (P07766 23-126, chain 1 of 2): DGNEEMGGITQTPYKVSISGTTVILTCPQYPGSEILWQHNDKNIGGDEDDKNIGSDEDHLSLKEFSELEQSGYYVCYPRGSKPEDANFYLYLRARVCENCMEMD
# T2 sequence (P09693 23-111, chain 2 of 2): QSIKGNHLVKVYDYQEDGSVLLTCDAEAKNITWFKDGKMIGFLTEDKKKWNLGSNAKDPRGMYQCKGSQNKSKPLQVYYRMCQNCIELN
# T1 sequence (P07766 23-126, chain 1 of 2): as the sequence (P07766 23-126, chain 1 of 2) above
# T1 sequence (P04234 22-105, chain 2 of 2): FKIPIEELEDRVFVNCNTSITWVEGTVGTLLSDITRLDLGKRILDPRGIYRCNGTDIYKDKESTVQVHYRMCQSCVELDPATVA
binder,measurement,setting,value
B1,Kd,[1],6.38 nM
same,koff,[1],0.00301 s⁻¹
same,kon,[1],473000 M⁻¹ s⁻¹
same,Kd,[2],7.87 nM
same,koff,[2],0.0029 s⁻¹
same,kon,[2],369000 M⁻¹ s⁻¹
